Test results: patent US20100298225A1, “PEPTIDE GAP JUNCTION MODULATORS” (priority 2007, published 2010)
“Also recorded” adds a separate entry of the source.

Legend:
[1] = molecular target: T1, Cx43-expressing N2a cells (Rattus norvegicus, UniProt P08050); experiment: Dual patch clamp: octanol-induced uncoupling, junctional conductance between cell pairs; assay type: cell-based; settings: for Ability to re-open gap junctions closed by the uncoupler (revert uncoupled cells to coupled) / Effect on octanol-induced uncoupling: 0.1 mM peptide in internal pipette solution, octanol superfusion; for Effect on octanol-induced uncoupling: Vj 60 mV; for Average junctional conductance (Gj) as a function of time after onset of octanol: 0.1 mM peptide in pipette, Gj relative to value before octanol, N=7 pairs; for Decrease in Gj three minutes after onset of octanol: junctional current traces of a cell pair, peptide in internal pipette solution; for Cell pairs that remained coupled / uncoupled following onset of octanol superfusion: seven cell pairs, peptide in pipette, uncoupling = zero junctional current at 60-mV pulse
T1 construct: expressed in transfected cells; host or cells: N2a (neuroblastoma) cells
T1 sequence (P08050 whole entry, the tested form may be a part): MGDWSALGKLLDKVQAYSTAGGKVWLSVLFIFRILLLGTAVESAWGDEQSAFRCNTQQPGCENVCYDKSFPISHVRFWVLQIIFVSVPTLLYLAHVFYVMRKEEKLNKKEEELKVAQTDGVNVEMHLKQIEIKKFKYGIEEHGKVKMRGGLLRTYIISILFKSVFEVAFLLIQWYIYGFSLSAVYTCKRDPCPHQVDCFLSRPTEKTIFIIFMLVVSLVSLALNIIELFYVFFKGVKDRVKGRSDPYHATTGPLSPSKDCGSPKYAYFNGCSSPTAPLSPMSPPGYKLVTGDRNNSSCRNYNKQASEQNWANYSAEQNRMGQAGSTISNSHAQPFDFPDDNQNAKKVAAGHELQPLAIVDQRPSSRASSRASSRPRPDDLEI
Protocol: Experiments were conducted on N2a (Neuroblastoma) cells. Cx43 was expressed either in a lac-switch stable system (induced by 0.1-1.0 mM of IPTG (Zhong et al., “LacSwitch II Regulation of Connexin43 cDNA Expression Enables Gap-junction Single-channel Analysis,” Biotechniques 34(5):1034-1034, 1041-1044, 1046 (2003), which is hereby incorporated by reference in its entirety)) or transiently using an IRES plasmid coding for eGFP (Seki et al., “Modifications in the Biophysical Properties of Connexin43 Channels by a Peptide of the Cytoplasmic Loop Region,” Circ. Res. 95(4):e22-e28 (2004); Seki et al., “Loss of Electrical Communication, but Not Plaque Formation, After Mutations in the Cytoplasmic Loop of Connexin43,” Heart Rhythm. 1(2):227-233 (2004), which are hereby incorporated by reference in their entirety). M257 (a mutant of Cx43 truncated at amino acid 257 (Morley et al., “Intramolecular Interactions Mediate pH Regulation of Connexin43 Channels,” Biophys. J. 70(3):1294-1302 (1996), which is hereby incorporated by reference in its entirety)) was transiently expressed in N2a cells also using an eGFP-containing IRES plasmid. Cells were placed on the stage of an inverted microscope equipped for epifluorescence (Nikon Diaphoto200, Filter: 520 to 560 nm). Junctional current (I) was recorded from eGFP-positive cell pairs in a dual-whole-cell voltage clamp configuration (holding potentials: −40 mV; transjuctional voltage, Vj, +[…]; step duration, 10-30 seconds). Patch pipettes were filled with a cesium-containing solution (Seki et al., “Modifications in the Biophysical Properties of Connexin43 Channels by a Peptide of the Cytoplasmic Loop Region,” Circ. Res. 95(4):e22-e28 (2004); Seki et al., “Loss of Electrical Communication, but Not Plaque Formation, After Mutations in the Cytoplasmic Loop of Connexin43,” Heart Rhythm. 1(2):227-233 (2004), which are hereby incorporated by reference in their entirety). For the low pH experiments, HEPES was replaced by MES (10 mM). Pipette resistance was 4.0-6.0MΩ. Synthetic peptides were diluted in the pipette solution to a final concentration of 0.1 mM. During recording, cells were kept at room temperature in a cesium-containing solution (Seki et al., “Modifications in the Biophysical Properties of Connexin43 Channels by a Peptide of the Cytoplasmic Loop Region,” Circ. Res. 95(4):e22-e28 (2004); Seki et al., “Loss of Electrical Communication, but Not Plaque Formation, After Mutations in the Cytoplasmic Loop of Connexin43,” Heart Rhythm. 1(2):227-233 (2004), which are hereby incorporated by reference in their entirety). For some experiments, octanol (2.0 mM) was superfused during recording. Data acquisition and recording, and criteria for single channel detection were as reported in Seki et al., “Modifications in the Biophysical Properties of Connexin43 Channels by a Peptide of the Cytoplasmic Loop Region,” Circ. Res. 95(4):e22-e28 (2004) and Seki et al., “Loss of Electrical Communication, but Not Plaque Formation, After Mutations in the Cytoplasmic Loop of Connexin43,” Heart Rhythm. 1(2):227-233 (2004), which are hereby incorporated by reference in their entirety.
Compounds were tested for their ability to interfere with octanol-induced uncoupling. Compounds are tested for their ability to interfere with acidification induces uncoupling.
Experiments were modeled after those described in Shibayama et al (2006). Junctional conductance between Cx43-expressing N2a cell pairs was assessed using conventional dual patch clamp. Peptides were diluted in the patch pipette solution and the cells will be exposed either to octanol or to a low intracellular pH. Control experiments were carried out in the absence of the compound. The results are shown in FIGS. 3A-E, which are graphs of the time course of octanol-induced changes in coupling recorded from Cx43-expressing N2a cells. FIGS. 3A-E relate to peptides 2517, 2518, 2529, 2520 and 2624 respectively. […]

[2] = molecular target: T2, carboxyl terminal domain (CT) of Cx43 (Rattus norvegicus, UniProt P08050); experiment: Peptide binding to Cx43CT determined using surface plasmon resonance (SPR); settings: immobilised recombinant Cx43CT
T2 construct: GST (N, cleaved yes); made in house; host or cells: E. coli BL-21
T2 sequence (P08050 255-382): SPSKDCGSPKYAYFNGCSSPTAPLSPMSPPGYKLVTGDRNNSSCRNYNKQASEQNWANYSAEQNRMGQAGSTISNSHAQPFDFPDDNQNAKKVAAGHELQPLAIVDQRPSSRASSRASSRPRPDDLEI
Protocol: 277(39):36706-36714 (2002), which is hereby incorporated by reference in its entirety. Briefly, cDNA derived from rat Cx43 was inserted into pGEX-6P-2 (Amersham) and expressed in E. coli (BL-21). The resultant GST-fusion protein was cleaved from the GST PreScission Protease® (Amersham Biosciences). The recombinant product after cleavage contained the sequence 255-382 of rCx43 preceded by four additional amino acids (GPLG). Protein concentration was measured using the Bio-Rad DC Protein Assay. Protein purity was assessed by SDS-PAGE.
Recombinant Cx43CT was covalently bound to a carboxylmethyl dextran matrix (Salamon et al., “Surface Plasmon Resonance Spectroscopy as a Tool for Investigating the Biochemical and Biophysical Properties of Membrane Protein Systems. II: Applications to Biological Systems,” Biochim. Biophys. Acta 1331(2):131-152 (1997), which is hereby incorporated by reference in its entirety). Specific peptides were presented and, when feasible, dissociation constants (KD) were calculated from the time course of binding and unbinding of the ligand, using a 1:1 (Langmuir) association and dissociation kinetic model (Biacore software package). In both phases (association and dissociation), the first 5-8 seconds of recording were not included in the fit, to avoid artifacts resulting from peptide distribution within the flow cells (Lang et al., “Surface Plasmon Resonance as a Method to Study the Kinetics and Amplitude of Protein-protein Binding,” in PRACTICAL METHODS IN CARDIOVASCULAR RESEARCH 936-947 (Stefan Dhein, Friedrich Wilhelm Mohr & Mario Delmar eds., 2005), which is hereby incorporated by reference in its entirety).
The peptides shown in table 2 and 3 were tested for binding to the carboxyl terminal domain (CT) of Cx43 using Surface Plasmon Resonance (“SPR”). SPR is a method that was used to identify the original RXPE sequence (Shibayama et al., “Identification of a Novel Peptide that Interferes with the Chemical Regulation of Connexin-43,” Circ. Res. 98:1365-72 (2006)). The amplitude of the response is also a function of the mass of the ligate, and the normalized data according to the individual peptide Mw's are shown in table 3.

Ac-Arg-Arg-Asn-Tyr-Gly-Gly-Gly-Ser-Ala-Val-Pro-Phe-Tyr-Ser-His-Ser-Arg-Arg-Asn-Tyr-Gly-Gly-Gly-Ser-Ala-Val-Pro-Phe-Tyr-Ser-His-Ser-Arg-Arg-Asn-Tyr-Gly-Gly-Gly-Ser-Ala-Val-Pro-Phe-Tyr-Ser-His-Ser-Arg-Arg-Asn-Tyr-NH2 (Ac-RRNYGGGSAVPFYSHSRRNYGGGSAVPFYSHSRRNYGGGSAVPFYSHSRRNY-NH2) [Compound 2372]
Ability to re-open gap junctions closed by the uncoupler (revert uncoupled cells to coupled) [1]: able to revert uncoupled cells to couple cells; also recorded: re-open gap junctions that were initially closed by the uncoupler | Effect on octanol-induced uncoupling [1]: prevented octanol-induced uncoupling | Average junctional conductance (Gj) as a function of time after onset of octanol [1]: a slight decrease in Gj was apparent; also recorded: decreased at first and then increased | Decrease in Gj three minutes after onset of octanol [1]: no or only a minor decrease in Gj | Cell pairs that remained coupled / uncoupled following onset of octanol superfusion [1]: none of the cell pairs exposed to 2372 uncoupled

Ac-Arg-Arg-Asn-Tyr-Gly-Gly-Gly-Ser-Ala-Val-Pro-Phe-Tyr-Ser-His-Ser-Arg-Arg-Asn-Tyr-NH2 (Ac-RRNYGGGSAVPFYSHSRRNY-NH2) [Compound 2366]
Ability to re-open gap junctions closed by the uncoupler (revert uncoupled cells to coupled) [1]: able to revert uncoupled cells to couple cells; also recorded: re-open gap junctions that were initially closed by the uncoupler | Effect on octanol-induced uncoupling [1]: prevented octanol-induced uncoupling | Average junctional conductance (Gj) as a function of time after onset of octanol [1]: decreased at first and then increased | Cell pairs that remained coupled / uncoupled following onset of octanol superfusion [1]: uncoupled and then recoupled

Ac-Arg-Arg-Asn-Tyr-Gly-Gly-Gly-Ser-Ala-Val-Pro-Phe-Tyr-Ser-His-Ser-Arg-Arg-Asn-Tyr-Gly-Gly-Gly-Ser-Ala-Val-Pro-Phe-Tyr-Ser-His-Ser-Arg-Arg-Asn-Tyr-NH2 (Ac-RRNYGGGSAVPFYSHSRRNYGGGSAVPFYSHSRRNY-NH2) [Compound 2371]
Ability to re-open gap junctions closed by the uncoupler (revert uncoupled cells to coupled) [1]: able to revert uncoupled cells to couple cells; also recorded: re-open gap junctions that were initially closed by the uncoupler | Effect on octanol-induced uncoupling [1]: prevented octanol-induced uncoupling | Average junctional conductance (Gj) as a function of time after onset of octanol [1]: decreased at first and then increased | Decrease in Gj three minutes after onset of octanol [1]: no or only a minor decrease in Gj | Cell pairs that remained coupled / uncoupled following onset of octanol superfusion [1]: uncoupled and then recoupled

Ac-Arg-Arg-Asn-Tyr-Arg-Arg-Asn-Tyr-NH2 (Ac-RRNYRRNY-NH2) [Compound 2497]
SPR respons ([2]; peptide 25 uM): 30.2 arbitrary units | SPR respons ([2]; peptide 100 uM): 84.2 arbitrary units | SPR respons ([2]; peptide 250 uM): 201.5 arbitrary units | SPR respons ([2]; peptide 500 uM): 327.5 arbitrary units | SPR respons ([2]; peptide 1 mM): 565.2 arbitrary units | Effect on octanol-induced uncoupling [1]: prevented octanol-induced uncoupling; also recorded: preventing the uncoupling of GJ
